From PMC8767186

Target: Spc105-mCherry (S. cerevisiae) (UniProt P53148)
Test: co-IP; RFP-Trap beads (Chromotek) on cleared yeast lysates in buffer H 0.15 (25 mM HEPES pH 8.0, 150 mM KCl, 0.1% IGEPAL), overnight; blots with anti-GFP and anti-DsRed; band intensities by ImageJ, normalised to full length, input and Spc105 IP

Sequence of UniProt P53148 (P53148 whole entry): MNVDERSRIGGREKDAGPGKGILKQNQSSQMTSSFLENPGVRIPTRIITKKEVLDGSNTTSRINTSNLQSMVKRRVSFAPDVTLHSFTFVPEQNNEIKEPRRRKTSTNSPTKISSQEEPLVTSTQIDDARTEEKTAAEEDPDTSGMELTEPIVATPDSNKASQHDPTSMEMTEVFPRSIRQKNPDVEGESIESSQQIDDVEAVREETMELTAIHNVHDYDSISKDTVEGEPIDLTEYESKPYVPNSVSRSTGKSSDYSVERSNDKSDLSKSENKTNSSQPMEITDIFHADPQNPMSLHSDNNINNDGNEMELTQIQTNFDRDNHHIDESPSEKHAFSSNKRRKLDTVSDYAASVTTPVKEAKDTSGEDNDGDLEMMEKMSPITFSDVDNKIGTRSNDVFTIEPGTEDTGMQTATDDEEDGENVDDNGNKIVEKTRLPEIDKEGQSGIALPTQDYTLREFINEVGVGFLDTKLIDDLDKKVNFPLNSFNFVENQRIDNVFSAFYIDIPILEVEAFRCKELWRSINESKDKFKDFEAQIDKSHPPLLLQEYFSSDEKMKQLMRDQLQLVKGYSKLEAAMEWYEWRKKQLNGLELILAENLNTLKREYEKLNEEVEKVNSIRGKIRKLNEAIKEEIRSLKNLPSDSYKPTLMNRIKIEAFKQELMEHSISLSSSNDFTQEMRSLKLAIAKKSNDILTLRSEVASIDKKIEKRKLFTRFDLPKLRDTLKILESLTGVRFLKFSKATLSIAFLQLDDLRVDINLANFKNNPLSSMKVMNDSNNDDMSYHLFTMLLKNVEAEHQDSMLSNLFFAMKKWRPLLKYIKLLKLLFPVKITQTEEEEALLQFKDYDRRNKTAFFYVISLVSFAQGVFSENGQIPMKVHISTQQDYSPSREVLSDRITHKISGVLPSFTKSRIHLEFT

reduction of co-precipitation against full-length Kre28: 40%
Substance: GFP-kre28^Δ127–182 (from UniProt Q04431 1-385) (natural protein)
